Source: publication PMC13385800 (2026)

B1: TBLR1-LgBiT wild type [not stated] / ANKRD11-SmBiT [not stated] (parent complex)
chain 1: MSISSDEVNFLVYRYLQESGFSHSAFTFGIESHISQSNINGALVPPAALISIIQKGLQYVEAEVSINEDGTLFDGRPIESLSLIDAVMPDVVQTRQQAYRDKLAQQQAAAAAAAAAAASQQGSAKNGENTANGEENGAHTIANNHTDMMEVDGDVEIPPNKAVVLRGHESEVFICAWNPVSDLLASGSGDSTARIWNLSENSTSGSTQLVLRHCIREGGQDVPSNKDVTSLDWNSEGTLLATGSYDGFARIWTKDGNLASTLGQHKGPIFALKWNKKGNFILSAGVDKTTIIWDAHTGEAKQQFPFHSAPALDVDWQSNNTFASCSTDMCIHVCKLGQDRPIKTFQGHTNEVNAIKWDPTGNLLASCSDDMTLKIWSMKQDNCVHDLQAHNKEIYTIKWSPTGPGTNNPNANLMLASASFDSTVRLWDVDRGICIHTLTKHQEPVYSVAFSPDGRYLASGSFDKCVHIWNTQTGALVHSYRGTGGIFEVCWNAAGDKVGASASDGSVCVLDLRK
chain 2: MPKGGCPKAPQQEELPLSSDMVEKQTGKKDKDKVSLTKTPKLERGDGGKEVRERASKRKLPFTAGANGEQKDSDTEKQGPERKRIKKEPVTRKAGLLFGMGLSGIRAGYPLSERQQVALLMQMTAEESANSPVDTTPKHPSQSTVCQKGTPNSASKTKDKVNKRNERGETRLHRAAIRGDARRIKELISEGADVNVKDFAGWTALHEACNRGYYDVAKQLLAAGAEVNTKGLDDDTPLHDAANNGHYKVVKLLLRYGGNPQQSNRKGETPLKVANSPTMVNLLLGKGTYTSSEESSTESSEEEDAPSFAPSSSVDGNNTDSEFEKGLKHKAKNPEPQKATAPVKDEYEFDEDDEQDRVPPVDDKHLLKKDYRKETKSNSFISIPKMEVKSYTKNNTIAPKKASHRILSDTSDEEDASVTVGTGEKLRLSAHTILPGSKTREPSNAKQQKEKNKVKKKRKKETKGREVRFGKRSDKFCSSESESESSESGEDDRDSLGSSGCLKGSPLVLKDPSLFSSLSASSTSSHGSSAAQKQNPSHTDQHTKHWRTDNWKTISSPAWSEVSSLSDSTRTRLTSESDYSSEGSSVESLKPVRKRQEHRKRASLSEKKSPFLSSAEGAVPKLDKEGKVVKKHKTKHKHKNKEKGQCSISQELKLKSFTYEYEDSKQKSDKAILLENDLSTENKLKVLKHDRDHFKKEEKLSKMKLEEKEWLFKDEKSLKRIKDTNKDISRSFREEKDRSNKAEKERSLKEKSPKEEKLRLYKEERKKKSKDRPSKLEKKNDLKEDKISKEKEKIFKEDKEKLKKEKVYREDSAFDEYCNKNQFLENEDTKFSLSDDQRDRWFSDLSDSSFDFKGEDSWDSPVTDYRDMKSDSVAKLILETVKEDSKERRRDSRAREKRDYREPFFRKKDRDYLDKNSEKRKEQTEKHKSVPGYLSEKDKKRRESAEAGRDRKDALESCKERRDGRAKPEEAHREELKECGCESGFKDKSDGDFGKGLEPWERHHPAREKEKKDGPDKERKEKTKPERYKEKSSDKDKSEKSILEKCQKDKEFDKCFKEKKDTKEKHKDTHGKDKERKASLDQGKEKKEKAFPGIISEDFSEKKDDKKGKEKSWYIADIFTDESEDDRDSCMGSGFKMGEASDLPRTDGLQEKEEGREAYASDRHRKSSDKQHPERQKDKEPRDRRKDRGAADAGRDKKEKVFEKHKEKKDKESTEKYKDRKDRASVDSTQDKKNKQKLPEKAEKKHAAEDKAKSKHKEKSDKEHSKERKSSRSADAEKSLLEKLEEEALHEYREDSNDKISEVSSDSFTDRGQEPGLTAFLEVSFTEPPGDDKPRESACLPEKLKEKERHRHSSSSSKKSHDRERAKKEKAEKKEKGEDYKEGGSRKDSGQYEKDFLEADAYGVSYNMKADIEDELDKTIELFSTEKKDKNDSEREPSKKIEKELKPYGSSAINILKEKKKREKHREKWRDEKERHRDRHADGLLRHHRDELLRHHRDEQKPATRDKDSPPRVLKDKSRDEGPRLGDAKLKEKFKDGAEKEKGDPVKMSNGNDKVAPSKDPGKKDARPREKLLGDGDLMMTSFERMLSQKDLEIEERHKRHKERMKQMEKLRHRSGDPKLKEKAKPADDGRKKGLDIPAKKPPGLDPPFKDKKLKESTPIPPAAENKLHPASGADSKDWLAGPHMKEVLPASPRPDQSRPTGVPTPTSVLSCPSYEEVMHTPRTPSCSADDYADLVFDCADSQHSTPVPTAPTSACSPSFFDRFSVASSGLSENASQAPARPLSTNLYRSVSVDIRRTPEEEFSVGDKLFRQQSVPAASSYDSPMPPSMEDRAPLPPVPAEKFACLSPGYYSPDYGLPSPKVDALHCPPAAVVTVTPSPEGVFSSLQAKPSPSPRAELLVPSLEGALPPDLDTSEDQQATAAIIPPEPSYLEPLDEGPFSAVITEEPVEWAHPSEQALASSLIGGTSENPVSWPVGSDLLLKSPQRFPESPKRFCPADPLHSAAPGPFSASEAPYPAPPASPAPYALPVAEPGLEDVKDGVDAVPAAISTSEAAPYAPPSGLESFFSNCKSLPEAPLDVAPEPACVAAVAQVEALGPLENSFLDGSRGLSHLGQVEPVPWADAFAGPEDDLDLGPFSLPELPLQTKDAADGEAEPVEESLAPPEEMPPGAPGVINGGDVSTVVAEEPPALPPDQASTRLPAELEPEPSGEPKLDVALEAAVEAETVPEERARGDPDSSVEPAPVPPEQRPLGSGDQGAEAEGPPAASLCAPDGPAPNTVAQAQAADGAGPEDDTEASRAAAPAEGPPGGIQPEAAEPKPTAEAPKAPRVEEIPQRMTRNRAQMLANQSKQGPPPSEKECAPTPAPVTRAKARGSEDDDAQAQHPRKRRFQRSTQQLQQQLNTSTQQTREVIQQTLAAIVDAIKLDAIEPYHSDRANPYFEYLQIRKKIEEKRKILCCITPQAPQCYAEYVTYTGSYLLDGKPLSKLHIPVIAPPPSLAEPLKELFRQQEAVRGKLRLQHSIEREKLIVSCEQEILRVHCRAARTIANQAVPFSACTMLLDSEVYNMPLESQGDENKSVRDRFNARQFISWLQDVDDKYDRMKTCLLMRQQHEAAALNAVQRMEWQLKVQELDPAGHKSLCVNEVPSFYVPMVDVNDDFVLLPA

Variants of: B1
Experiment: NanoLuc complementation assay; n = 3–5 independent transfections per TBLR1 mutant; read off a plot

| ratio to parent | Variant |
| --- | --- |
| ~0.06 | chain 1 MSISSDEVNFLVYRYLQESGFSHSAFTFDIESHISQSNINGALVPPAALISIIQKGLQYVEAEVSINEDGTLFDGRPIESLSLIDAVMPDVVQTRQQAYRDKLAQQQAAAAAAAAAAASQQGSAKNGENTANGEENGAHTIANNHTDMMEVDGDVEIPPNKAVVLRGHESEVFICAWNPVSDLLASGSGDSTARIWNLSENSTSGSTQLVLRHCIREGGQDVPSNKDVTSLDWNSEGTLLATGSYDGFARIWTKDGNLASTLGQHKGPIFALKWNKKGNFILSAGVDKTTIIWDAHTGEAKQQFPFHSAPALDVDWQSNNTFASCSTDMCIHVCKLGQDRPIKTFQGHTNEVNAIKWDPTGNLLASCSDDMTLKIWSMKQDNCVHDLQAHNKEIYTIKWSPTGPGTNNPNANLMLASASFDSTVRLWDVDRGICIHTLTKHQEPVYSVAFSPDGRYLASGSFDKCVHIWNTQTGALVHSYRGTGGIFEVCWNAAGDKVGASASDGSVCVLDLRK [chain 1 G29D] |
| ~0.07 | chain 1 MSISSDEVNFLVYRYLQESGFSHSAFTFGIESHISQSNINGALVPPAALISIIQKGLQYVEAEVSINEDDTLFDGRPIESLSLIDAVMPDVVQTRQQAYRDKLAQQQAAAAAAAAAAASQQGSAKNGENTANGEENGAHTIANNHTDMMEVDGDVEIPPNKAVVLRGHESEVFICAWNPVSDLLASGSGDSTARIWNLSENSTSGSTQLVLRHCIREGGQDVPSNKDVTSLDWNSEGTLLATGSYDGFARIWTKDGNLASTLGQHKGPIFALKWNKKGNFILSAGVDKTTIIWDAHTGEAKQQFPFHSAPALDVDWQSNNTFASCSTDMCIHVCKLGQDRPIKTFQGHTNEVNAIKWDPTGNLLASCSDDMTLKIWSMKQDNCVHDLQAHNKEIYTIKWSPTGPGTNNPNANLMLASASFDSTVRLWDVDRGICIHTLTKHQEPVYSVAFSPDGRYLASGSFDKCVHIWNTQTGALVHSYRGTGGIFEVCWNAAGDKVGASASDGSVCVLDLRK [chain 1 G70D] |

Variants of: B1
Experiment: co-immunoprecipitation, mass spectrometry; TBLR1-null Flp-In T-REx 293 cells; n = 3 independent transfections; read off a plot

| screen value | Variant |
| --- | --- |
| ~1.9 log2 | chain 1 MSISSDEVNFLVYRYLQESGFSHSAFTFGIESHISQSNINGALVPPAALISIIQKGLQYVEAEVSINEDDTLFDGRPIESLSLIDAVMPDVVQTRQQAYRDKLAQQQAAAAAAAAAAASQQGSAKNGENTANGEENGAHTIANNHTDMMEVDGDVEIPPNKAVVLRGHESEVFICAWNPVSDLLASGSGDSTARIWNLSENSTSGSTQLVLRHCIREGGQDVPSNKDVTSLDWNSEGTLLATGSYDGFARIWTKDGNLASTLGQHKGPIFALKWNKKGNFILSAGVDKTTIIWDAHTGEAKQQFPFHSAPALDVDWQSNNTFASCSTDMCIHVCKLGQDRPIKTFQGHTNEVNAIKWDPTGNLLASCSDDMTLKIWSMKQDNCVHDLQAHNKEIYTIKWSPTGPGTNNPNANLMLASASFDSTVRLWDVDRGICIHTLTKHQEPVYSVAFSPDGRYLASGSFDKCVHIWNTQTGALVHSYRGTGGIFEVCWNAAGDKVGASASDGSVCVLDLRK [chain 1 G70D] |
